Results published in the DeepSol protein solubility set.

Experiment: soluble on expression in E. coli; label from the status in PepcDB or PDB records

Sequence: AIAVHQASPVKNISDTRPKRSPEYWYYYCTYEDNSVKSPLVPGLKVETQAVADRFSADIFSAVERYNQLFSEVQKQSFKYVPEEESDNQSN
- soluble on expression in E. coli: soluble

Sequence: MSLGPTSKAISRNVRSVKRPRRAPRPVVSTQAMNKLSNVTLSAEQEKLRERVLSFMRSNLSQYKSDWKHPAMFVIQGDAGTGKSVILNSLFNEIQKLSQFSPSSEDILHGTHNYLVVNHPEMLKLYIRISDSFKYISKSSLERPTSLINNLQKRKVMADVVIVDEAHLLATSKDAFKRFYGENHLKDLMSLCKVLVLVYDDKQALRMGSYWDEGSNNGATLKDFYNEIPPKSRDWYTLKQQFRVAAPQNVLNWIDQISVAGKIPPIESVLSKGNADCADDKIKNFDFKIWDDCGAMYEAIKEKDRQYGQCRMLSTYDFPYRLDGKDYYVECGDNFKVRWDRYTPREVTPWSERCDTIDEVGSVYTIQGFDLNYAGVILGRSIGYDAANDCIKLRPELYDDRAGFTKKKNIHNAEDVKQKIIMNSINVLLTRGVRGLYVYAYDPELRERLLRPSKEGHHHHHH
- soluble on expression in E. coli: soluble

Sequence: MKILKDTVLFGLFASYADGVRNGEEKLSAAYDDFATLLATLPTDGTNICAQLRRLFYTKIELRGIQETVSTNGMERHVLFDVYIGKALALLDAEEQMMKEVLRHGGTEAMGLKEEAVCRNGKKGSVTLTWNGTDSDLIELVAALMAAGVIGTAEGRELKVVDVIRVFEEVFHLKINALYTKRGKVFDRCTDTTPFIDSLRRSYNRMLDARLA
- soluble on expression in E. coli: not soluble

Sequence: EKEKDTIAAEHKQEASVLLNLHRNKINYLIGETMARMTSLSIAIDRPVDIKKMQSILEKTFDSEPRFSGLYFLNAKGDVTASTTELKTKVNLADRSFFIKAKETKKTVISDSYSSRITGQPIFTICVPVLDSKRNVTDYLVAAIQIDYLKNLINLLSPDVYIEVVNQDGKMIFASGQASHAEDQKPVSGYLDDISWNMKVYPNPVTIEELSKSL
- soluble on expression in E. coli: soluble

Sequence: PFKESQARGLLQDNMANSYNGGDFEDGLLNLSKEVFPTDKYLYQDGQFLDKKTINAYLNPKYTKREIDKMSEKDKKDKKANENLGLNPSHEGETNPEKIAEKSPAYLSNILEQDFYGGGDTKGKNIKGMTIGLAMNSVYYYKKEKDGPTFSKKLDDSEVKKQGKQMASEILSRLRENDDLKDIPIHFAIYKQSSEDSITPGEFITQATAEKSQTKLNEWHNINEKSALLPSSTAADYDENLNNNFKQFNDNLQSYFSNFTQAVGKVKFVDKKPQRLVVDLPIDYYGQAETIGITQYVTEQANKYFDKIDNYEIRIKDGNQPRALISKTKDDKEPQVHIYSN
- soluble on expression in E. coli: soluble

Sequence: YRQQFDFSCGSAALASLLTFHYDDSVDEQSVFVDMFQHGDQEKIRREGFSMLDMKRYLERRGYGSDGFKINLDQLYSTGSPAITIINHNGYMHFVIIKGVDEDRVLVGDPAQGVKSMDRTEFERMWGNRIVFLIHNHVD
- soluble on expression in E. coli: not soluble

Sequence: MGSDKIHHHHHHLNGHGYHVTGTKTTQDGVEAARMSGIECYQLVLTPELECDADELSALLQVDVLIVTLPASRTAEGGEGYAQAVQQLVNMARVFHVPRIIFTSSTSVYGDGSGTVRETSPLQPTTVAGKTLVSLEQWLQHLPDISVDILRLAGLVGGDRHPGRFLAGKTNLPRGNHGVNLVHQEDVLAAILLLLKLPNGGHIYNLCATEHPARQDFYPEQARRLHVSTPQFAPVTDSSQGRIVDGQRICHELGFDYQYPNPSTMPLNAGESR
- soluble on expression in E. coli: not soluble

Sequence: GEGSPVGIAILGYGTVGSQVLRLLTENHNDFQHRAGGPLEIKGVAASSVEKHRGSLADQLGLLTDDARSLIARDDVDIVVEVIGGIDYPRELILEALHSGKSVVTANKALVAAHSEELAAAADEAGVDLYFEAAVAAAIPVLGPLRRSLAGDQIQSVAGIVNGTTNFILDAMDSTGASYDDMLAEATRLGYAEADPTADVEGHDAASKAAILASLAFHTRVTYADVYCEGISKITADDINAAKEAGFTIKLLAICERLNVDGVEKVSARVHPTLVPRNHPLASVDKSFNAIFVEAEAAGRLMFYGNGAGGNPTASAVLGDIVGAARNKVFGGRAPGESTYADLPIAPFGEVPTRFHIDMEVEDRVGVLADLAKTFSNHGISLRTVRQAEKDGHARLIVVTHTAKESELEATVEQIKNSDSVKKINSVIRLAG
- soluble on expression in E. coli: not soluble

Sequence: MSLGQDIGFYLGRIDSEMDSWVADPDEALKASNKLFFLNPFQANKVGIKGKANSNPNTQLSGDTGEGKSFAAKLIHLYSSFLKVKTLYIDPKLEMEANYKRVLKEFEEQDVYPEIQKYIRSLSFATLDSTKNENLGVLDPLVFLPKKRAKGLIVSMIGELIKYDSHISFKTELSHQLSLFADRRARGEQVGTLTVLKELYNHSERQDVRDTAESLIEDIKDSILGLVFSDGKNQAVDLNARNVILGVSGLDLPQDDSIVHSDLTLQQRYSLVIMYALGEFVIQFAERDYKEHTLEIVDEAWFLETSAVGRGIFNRMKRLNRRFNNFLYFVSQEIDDSNRGKDEKTAFGSYFCFRNDDSTKVDSILRRLGVQPTEESRKWFDNLSLGQCLYRDSANRVERVTFDGLFPEVKELFKTVENDSLEGHHHHHH
- soluble on expression in E. coli: soluble

Sequence: INKVPVTVFLWRPEKYWPADFVSENVKNFGYTVEEFTSGKVLYGNIVHPDDFERVERELSRRIEEDYVDFSQEYRILTKSGEARWVEERTFIEADENGVVKYLKGIILDIT
- soluble on expression in E. coli: not soluble

Sequence: MSLSEIKRKFDAVSGKYDEQRRKFIPCFDDFYGVSVSIASVDTENPDILDLGAGTGLLSAFLMEKYPEATFTLVDMSEKMLEIAKNRFRGNLKVKYIEADYSKYDFEEKYDMVVSALSIHHLEDEDKKELYKRSYSILKESGIFINADLVHGETAFIENLNKTIWRQYVENSGLTEEEIAAGYERSKLDKDIEMNQQLNWLKEAGFRDVSCIYKYYQFAVMFGRKTEGHHHHHH
- soluble on expression in E. coli: soluble

Sequence: MEDLRRYICDNTQKNIVMLVGRKVSDISKIARSYGNACMLRSFQGFRIVKSIYYYEDEVKISADGIVLCKDSLDELLRTVEQNNHVEIRNAVATFYDEMSSMGMNGESMNLNINYLLFQFIHLASEQDDNVNQQEILRLISESSFKTGIERGSRAHMTRFCCEYGDYLSQLRKNVSRGVIGMVEKEVRDNYATNITLKSLSEKYYVNSAYLGQLFRKKYGQSFKDYLNNYRMERAAELLLRTDKKIIQIAEEVGYHDMDYFVNRFIQVKGCTPARFRRQMQSGE
- soluble on expression in E. coli: not soluble

Sequence: MGSDKIHHHHHHMSRTQEKHNRSVSKDVLVVGGGTSGFVAAIAAARNGASVLLLEQRDHLGGTHSGGMVMMIRSMRHMKAPANMEQKKIMMTGYESSFDDEQVVRSIVQEYINRMLEIGSAWGRKDEATARQMFDPEIAKWVIQDMVAEAGVEVWLNTQATDVIMEGNALKGVVIESLRDRVEVHAGITIDTTGDGDIAAAAGAAFEFGSPEDGKCQPASLYFAVGGVQLDKTIAYMRDHANEFGEEYVKTMVGLKEQNKPITMFPFKEKIREALKNGDYPIPYGVETVNPDTLSYIVRPMFRNGKFRYDVTYHNMDMAYNFDATDRVELTKATLAMRDLANKMAKFYRKYVPGYEDSYLSYTAQSVGIRDSRRIVCDYTLTREDVLAGQVFPDGIGRYGSLMDVHDKSGKKSLSLVEVGGHGWFHVPFRSLLPKGIENLMVAGRCISADYDAQGSVRSQAASMVTGQATGTAAALAVQQKRKLRELDVSALQEVLKAQNQVI
- soluble on expression in E. coli: not soluble

Sequence: TAQFSWDTQLNFSQNKSKIIELLPGKPGMQYALGGSDALQVYAVAGGAYGEIWGTKYQRVEEGEFKGQLLLNESGLPQATSDKHKIGEQQPDFLLGWTNTFNYKNFTLSFLIDGRFGGDIFSFTNMNLQRSGIAECTAPGGKREDIVVAGVIKDGNGYKVNDQSVSLERYYKALATGRAGISEAYIYDATNIRLRNIALSYRFPSSMLKKTPFQQVKLGFTVNNVWMISSHLDGIDPESVYATSTNATGLENSSAPTSRSYLFNVTLGF
- soluble on expression in E. coli: not soluble

Sequence: GWSFEEQFKQVRQLYEINDDPKRKEFLDDLFSFMQKRGTPINRLPIMAKSVLDLYELYNLVIARGGLVDVINKKLWQEIIKGLHLPSSITSAAFTLRTQYMKYLYPYECEKKNLSTPAELQAAIDGNR
- soluble on expression in E. coli: soluble

Sequence: MGSDKIHHHHHHMMKLSTMKKVVATVDKKWRSPLAEFILERWGFDRHSVFYWRASANFIFMFQHHGKKYYLRFNDSCERNLTLIKEELKLVQYLGSQALAIAQPVLSKNNNLVEVVITPIGTFYAVVFEALDGEHLSFEEMNEEQLFLWGEMLGTIHENLKNVPNDLAIKRPSWKDDLEKVKEWIPSNEIAAMKELEMISEWADQLPITKENFGIIHYDFELDNVRFNEITIGALDFDDCAYYWYVADIVYALRDAGKFRVTTPAIKTFIKGYKSSTFLEEELLEEANGFERLHHLVSFARLLRSVDKDYSKEEPGYLMDLRKNLVSLINNYRLSFEQNHK
- soluble on expression in E. coli: not soluble

Sequence: APEAFLNSVLQPFVLPFLQRYPKIQLKLRAADGEIDLFRQGIDVAFKLTDKPDENLVLKEISKTNLVLCASPDYLAQRGMPEHPTQLEQHDCIYLAENDKDNIWSFFKEEAFHSIAVSGRYAVNHSQMRLNGVKAGLGIGIFHDFVVKEALERGEVVEVLSDWMIKSNYHGAVAMQYAQTKYMPARLRVFIGFVNEHLVSKEPTHV
- soluble on expression in E. coli: not soluble

Sequence: MPGNSGNDRSVVVGRVSGAFGVRGWVKAVSFTDPPVNLVGYRPWTLRRGDAERRADVLEGREHGNAVIVRLQGVDTREQAEALKGFEVTVRRSQLPPPAPGEYYRVDLVGLKVVNLGETVLGEVVDVMETGANDVLVVQGDRERLLPFVQGVFVKSVNLEESRIVVDWDPGFLEHHHHHH
- soluble on expression in E. coli: not soluble

Sequence: MKQLSFLPGEMTPQDRRLIQRALRALDRHLHEPGVAFTSTHAVREWLRLHMAALEREEFRVLYLDNQNQLIAHETLFTGTINRTEVHPREVVKRALHFNAAAVILAHNHPSGETTPSQADKTLTQRLVQVLQLVDIRVPDHLIVGGRQIYSFAEHGLL
- soluble on expression in E. coli: not soluble

Sequence: MRPLSLKGHERALTRVRFNREGDLTFSCAKDKKPCVWYTENGERIGSYDGHNGAVWDIDVSWDTTKCVTASGDLTVKIWDAELGNCLYTINHQTPMKSCGFSYSGNLVCFTTQKMTKNLSTFQVRDLRDSSQMVEGGESFFYSQFDVNATTALFTQMDDLVTIGFESGLLQQYDLRNPDTPIHTNESVHRYSVQDLQLSPRGDFLISASRDKTAALLDVNDLKKLKQYKSERPVNSACISPNRDHICLGGGEDAMQVTQTSVSAGHFEAKIYHMVFEEEFARFKGHFGPINTMAWHPSGTIIATGGEDGYIRIQEFDEDYLGFTYDF
- soluble on expression in E. coli: not soluble

Sequence: MSTTIQYNSNYADYSISSYLREWANNFGDIDQAPAETKDRGSFSGSSTLFSGTQYAIGSSHSNPEGMIAEGDLKYSFMPQHTFHGQIDTLQFGKDLATNAGGPSAGKHLEKIDITFNELDLSGEFDSGKSMTENHQGDMHKSVRGLMKGNPDPMLEVMKAKGINVDTAFKDLSIASQYPDSGYMSDAPMVDTVGVVDCHDMLLAA
- soluble on expression in E. coli: not soluble

Sequence: NAIMDLQTRNTRGLSTLVVRDIGELMMAGDMAVIERYVADVRGKGAVLDLRIYDAAGRPAGKKQDAPDGEVQAALTSGATAEKRHKVDGRHVLSFIVPLANEVRCQSCHEQGARFNGAMLLTTSLEEGYAGARN
- soluble on expression in E. coli: soluble

Sequence: MSLKTYALVMAGGRGERLWPLSREDRPKPFLPLFEGKTLLEATLERLAPLVPPERTLLAVRRDQEAVARPYADGIRLLLEPLGRDTAGAVLLGVAEALKEGAERLLVLPADHYVGDDEAYREALATMLEAAEEGFVVALGLRPTRPETEYGYIRLGPREGAWYRGEGFVEKPSYAEALEYIRKGYVWNGGVFAFAPATMAELFRRHLPSHHEALERLLAGASLEEVYAGLPKISIDYGVMEKAERVRVVLGRFPWDDVGNWRALERVFSQDPHENVVLGEGRHVALDTFGCVVYADRGVVATLGVSGLVVAKVGDEVLVVPKDWAREVREVVKRLEAQEEGHHHHHH
- soluble on expression in E. coli: soluble

Sequence: MNMAHTTTSMEIFGSPEQVWQLIGGFNSLPDWLPYIPSSKLTEGGRVRHLANPDGDTIIERLEVFNDKERYYTYSIMNAPFPVTNYLSTIQVKEGTESNTSLVEWSGTFTPVEVSDEEAINLFHGIYSDGLKALQQAFLDLEHHHHHH
- soluble on expression in E. coli: soluble
